# Measured values reported in PMC5890177, “Selective Detection of Lysozyme Biomarker Utilizing Large Area Chemical Vapor Deposition-Grown Graphene-Based Field-Effect Transistor”.
# B1: MB-labelled thiolated anti-lysozyme aptamer (ssDNA)
# DNA: ATCAGGGCTAAAGAGTGCAGAGTTACTTAG
# modifications: thiol
# Target: lysozyme (chicken (egg white), UniProt P00698 19-147)
# Test: square wave voltammetry (electrochemical aptasensor); 0.01x PBS; peak current falls with lysozyme; 0.01x PBS (stock dilutions in 0.1 mM phosphate-buffered solution, pH 7.4), 30 min incubation, then rinse in 0.01x PBS and DI water; chip pretreated with Tween 20; binding temperature not stated
# Settings: protein: commercial; label: methylene blue
# lysozyme, sequence (P00698 19-147): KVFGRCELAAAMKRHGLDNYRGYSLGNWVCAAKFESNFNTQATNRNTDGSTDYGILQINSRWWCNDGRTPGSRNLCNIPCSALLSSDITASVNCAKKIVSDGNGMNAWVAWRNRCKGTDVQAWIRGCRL
binder,measurement,value
B1,binding result,binds
